Data: PMC5437272, “ISCA1 is essential for mitochondrial Fe4S4 biogenesis in vivo” (Nature Communications, 2017)
Values joined by “and” are separate entries in the source; they are usually repeats but may differ in a detail not shown here. Equal entries are not always repeated.

Biological target: the molecule itself
Assay: SEC; analytical Superdex-75, 0.5 ml min^-1, buffer E (100 mM Tris-HCl pH 7.5, 100 mM NaCl, 5 mM DTT), calibrated with molecular weight standards; oligomerization state of the ISCA proteins

B1: His-ISCA2 (mouse recombinant ISCA2, mature form) (natural protein, UniProt Q9DCB8 38-154, looked up)
chain: TTSSIPEAGEGQIRLTDSCVQRLLEITEGSEFLRLQVEGGGCSGFQYKFSLDTVINPDDRVFEQGGARVVVDSDSLAFVKGAQVDFSQELIRSSFQVLNNPQAQQGCSCGSSFSVKV
notes: ISCA2, mouse, mature form cloned into pET-11a; theoretical mass of the His-tagged monomer 13,554 Da; As purified it holds a Fe2S2 cluster; also called Fe2S2-ISCA2; source: E. coli BL21(DE3)/pET-ISCA2, purified under anaerobic condition (Ni-NTA); not shown: His tag, N-terminal, kept
  stoichiometry N: 2

B2: His-ISCA1 (mouse recombinant ISCA1, mature form) (natural protein, UniProt Q9D924 13-129, looked up)
chain: VSKRKLQPTRAALTLTPSAVNKIKQLLKDKPEHVGLKVGVRTRGCNGLSYSLEYTKTKGDSDEEVIQDGVRVFIEKKAQLTLLGTEMDYVEDKLSSEFVFNNPNIKGTCGCGESFHV
notes: ISCA1, mouse, mature form cloned into pET-11a; theoretical mass of the His-tagged monomer 13,898.8 Da; As purified it holds a Fe2S2 cluster; By gel filtration a mixture of dimer (main) and tetramer (minor); also called Fe2S2-ISCA1; source: E. coli BL21(DE3)/pET-ISCA1, purified aerobically (Ni-NTA); not shown: His tag, N-terminal, kept
  stoichiometry N: 2 and 4
